Assay results taken from US20220389394A1 (Gilead, published 2022).
Where a chain is given by its changes, count along the chain named. Names may count otherwise. Read-outs that look alike come from different tables or passages of the source.

T1: his-tagged recombinant human Flt3 receptor (Sino Biologicals) (human, UniProt P36888 27-541, limits assumed)
T1 construct: Bought protein; also called human recombinant FLT3; not shown: His tag
T1 sequence (looked up): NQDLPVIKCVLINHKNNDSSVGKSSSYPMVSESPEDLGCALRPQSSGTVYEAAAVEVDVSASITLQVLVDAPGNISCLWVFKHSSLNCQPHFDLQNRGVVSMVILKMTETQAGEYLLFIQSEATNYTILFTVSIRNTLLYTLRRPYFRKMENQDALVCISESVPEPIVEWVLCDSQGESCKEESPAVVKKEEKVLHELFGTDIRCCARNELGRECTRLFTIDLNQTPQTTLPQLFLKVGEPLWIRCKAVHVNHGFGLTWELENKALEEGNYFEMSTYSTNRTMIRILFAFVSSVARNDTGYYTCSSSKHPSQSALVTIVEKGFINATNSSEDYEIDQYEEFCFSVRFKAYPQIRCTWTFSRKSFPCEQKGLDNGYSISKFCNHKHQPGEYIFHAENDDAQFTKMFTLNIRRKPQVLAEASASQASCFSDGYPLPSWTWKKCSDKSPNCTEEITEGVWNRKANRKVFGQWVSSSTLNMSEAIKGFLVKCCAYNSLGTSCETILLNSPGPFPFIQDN

T2: human FLT3 on the AML5 cell line (human, UniProt P36888 27-993)
T2 sequence (looked up): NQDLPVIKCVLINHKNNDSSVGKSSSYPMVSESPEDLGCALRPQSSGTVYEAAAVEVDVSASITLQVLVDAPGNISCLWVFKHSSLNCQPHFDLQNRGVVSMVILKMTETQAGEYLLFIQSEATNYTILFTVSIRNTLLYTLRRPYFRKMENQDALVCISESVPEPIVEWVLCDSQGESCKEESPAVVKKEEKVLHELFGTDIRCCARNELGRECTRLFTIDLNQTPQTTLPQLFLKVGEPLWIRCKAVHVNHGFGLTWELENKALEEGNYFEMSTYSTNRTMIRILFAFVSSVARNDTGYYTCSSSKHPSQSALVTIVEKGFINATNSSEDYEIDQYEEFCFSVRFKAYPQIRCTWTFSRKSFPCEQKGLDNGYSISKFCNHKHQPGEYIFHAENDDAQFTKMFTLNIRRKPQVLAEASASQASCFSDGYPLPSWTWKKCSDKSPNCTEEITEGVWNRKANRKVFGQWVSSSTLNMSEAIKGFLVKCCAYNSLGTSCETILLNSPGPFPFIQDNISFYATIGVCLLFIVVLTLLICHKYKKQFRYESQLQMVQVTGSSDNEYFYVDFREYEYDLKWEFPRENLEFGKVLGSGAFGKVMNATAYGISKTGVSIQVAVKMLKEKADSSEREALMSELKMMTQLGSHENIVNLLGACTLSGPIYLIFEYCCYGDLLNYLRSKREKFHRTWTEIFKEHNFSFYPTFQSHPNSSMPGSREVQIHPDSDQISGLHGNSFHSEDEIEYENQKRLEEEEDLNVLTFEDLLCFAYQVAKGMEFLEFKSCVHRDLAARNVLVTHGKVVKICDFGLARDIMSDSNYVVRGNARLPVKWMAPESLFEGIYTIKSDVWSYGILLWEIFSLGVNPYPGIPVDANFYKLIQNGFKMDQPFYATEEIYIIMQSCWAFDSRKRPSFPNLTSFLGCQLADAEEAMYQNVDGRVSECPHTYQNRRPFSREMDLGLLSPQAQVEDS

B1: human FLT3-ligand human hingeless IgG1 fusion protein (SEQ ID NO:1) (Fc fusion)
chain: TQDCSFQHSPISSDFAVKIRELSDYLLQDYPVTVASNLQDEELCGGLWRLVLAQRWMERLKTVAGSKMQGLLERVNTEIHFVTKCAFQPPPSCLRFVQTNISRLLQETSEQLVALKPWITRQNFSRCLELQCQPDSSTLPPPWSPRPLEATAPTAPQGGPSVFLFPPKPKDTLMISRTPEVTCVVVDVSHEDPEVKFNWYVDGVEVHNAKTKPREEQYNSTYRVVSVLTVLHQDWLNGKEYKCKVSNKALPAPIEKTISKAKGQPREPQVYTLPPSREEMTKNQVSLTCLVKGFYPSDIAVEWESNGQPENNYKTTPPVLDSDGSFFLYSKLTVDKSRWQQGNVFSCSVMHEALHNHYTQKSLSLSPGK
notes: also called FLT3L ECD-hingeless hG1; hFLT3L ECD
B2: human FLT3-ligand (S128A/S151A) human hingeless IgG1 fusion protein (SEQ ID NO:5) (Fc fusion)
chain: B1 chain with S102A, S125A
notes: also called Aglyco-FLT3L ECD (S128A/S151A) hingeless hG1
B3: human FLT3-ligand (H8Y) human hingeless IgG1 fusion protein (SEQ ID NO:22) (Fc fusion)
chain: B1 chain with H8Y
B4: human FLT3-ligand (K84E) human hingeless IgG1 fusion protein (SEQ ID NO:23) (Fc fusion)
chain: B1 chain with K84E
B5: human FLT3-ligand (H8Y+K84E) human hingeless IgG1 fusion protein (SEQ ID NO:24) (Fc fusion)
chain: B1 chain with H8Y, K84E
B6: mouse FLT3-ligand mouse IgG2a (LALA-PG) fusion protein (SEQ ID NO:19) (Fc fusion)
chain: TPDCYFSHSPISSNFKVKFRELTDHLLKDYPVTVAVNLQDEKHCKALWSLFLAQRWIEQLKTVAGSKMQTLLEDVNTEIHFVTSCTFQPLPECLRFVQTNISHLLKDTCTQLLALKPCIGKACQNFSRCLEVQCQPDSSTLLPPRSPIALEATELPEPRGPTIKPCPPCKCPAPNAAGGPSVFIFPPKIKDVLMISLSPIVTCVVVDVSEDDPDVQISWFVNNVEVHTAQTQTHREDYNSTLRVVSALPIQHQDWMSGKEFKCKVNNKDLGAPIERTISKPKGSVRAPQVYVLPPPEEEMTKKQVTLTCMVTDFMPEDIYVEWTNNGKTELNYKNTEPVLDSDGSYFMYSKLRVEKKNWVERNSYSCSVVHEGLHNHHTTKSFSRTPGK
B7: mouse FLT3-ligand mouse IgG2a (C136S LALA-PG) fusion protein (SEQ ID NO:20) (Fc fusion)
chain: B6 chain with C109S
B8: human FLT3-ligand (Δ5 amino acid) human hingeless IgG1 fusion protein (SEQ ID NO:2) (Fc fusion)
chain: TQDCSFQHSPISSDFAVKIRELSDYLLQDYPVTVASNLQDEELCGGLWRLVLAQRWMERLKTVAGSKMQGLLERVNTEIHFVTKCAFQPPPSCLRFVQTNISRLLQETSEQLVALKPWITRQNFSRCLELQCQPDSSTLPPPWSPRPLEATAGGPSVFLFPPKPKDTLMISRTPEVTCVVVDVSHEDPEVKFNWYVDGVEVHNAKTKPREEQYNSTYRVVSVLTVLHQDWLNGKEYKCKVSNKALPAPIEKTISKAKGQPREPQVYTLPPSREEMTKNQVSLTCLVKGFYPSDIAVEWESNGQPENNYKTTPPVLDSDGSFFLYSKLTVDKSRWQQGNVFSCSVMHEALHNHYTQKSLSLSPGK
notes: also called FLT3L ECD (Δ C-term 5aa (PTAPQ)) - hingeless hG1
B9: human FLT3-ligand (Δ10 amino acid) human hingeless IgG1 fusion protein (SEQ ID NO:7) (Fc fusion)
chain: TQDCSFQHSPISSDFAVKIRELSDYLLQDYPVTVASNLQDEELCGGLWRLVLAQRWMERLKTVAGSKMQGLLERVNTEIHFVTKCAFQPPPSCLRFVQTNISRLLQETSEQLVALKPWITRQNFSRCLELQCQPDSSTLPPPWSPRPGGPSVFLFPPKPKDTLMISRTPEVTCVVVDVSHEDPEVKFNWYVDGVEVHNAKTKPREEQYNSTYRVVSVLTVLHQDWLNGKEYKCKVSNKALPAPIEKTISKAKGQPREPQVYTLPPSREEMTKNQVSLTCLVKGFYPSDIAVEWESNGQPENNYKTTPPVLDSDGSFFLYSKLTVDKSRWQQGNVFSCSVMHEALHNHYTQKSLSLSPGK
B10: human FLT3-ligand human IgG1 fusion protein (SEQ ID NO:21) (Fc fusion)
chain: B1 chain with L273K, T288S, P317V, F327R, Y329A, K331Y

Experiments:
[1] = target: T1, his-tagged recombinant human Flt3 …; assay: ELISA; His-tagged recombinant human Flt3 on nickel plate, serially diluted Flt3L-Fc, anti-human (H+L)-HRP, 4PL fit
Description: Graph is a result of one experiment.
(§1) Signal was developed using TMB substrate then quenched prior to reading absorbance at 450 nm on a SpectraMax plate reader.

[2] = target: T1, his-tagged recombinant human Flt3 …; assay: as above; remark: listed apart in the source
Procedure: (§2) Graph is a result of one experiment. Experiment was performed in duplicate. Error bars represent standard deviation of the mean values.
as §1

[3] = target: T2, human FLT3 on the AML5 cell line; assay: cell-based or functional assay
[4] = target: T2, human FLT3 on the AML5 cell line; assay: cell-based or functional assay; remark: listed apart in the source
recombinant human FcRn [5] = target: T3, recombinant human FcRn (human, UniProt P55899 24-297; P61769 21-119, limits assumed); assay: ELISA; recombinant human FcRn coated, serially diluted test article, anti-human (H+L)-HRP, 4PL fit
T3 construct: a beta-2-microglobulin chain is not mentioned; also called human recombinant FcRn
T3 sequence (P55899 24-297 limits assumed, chain 1 of 2): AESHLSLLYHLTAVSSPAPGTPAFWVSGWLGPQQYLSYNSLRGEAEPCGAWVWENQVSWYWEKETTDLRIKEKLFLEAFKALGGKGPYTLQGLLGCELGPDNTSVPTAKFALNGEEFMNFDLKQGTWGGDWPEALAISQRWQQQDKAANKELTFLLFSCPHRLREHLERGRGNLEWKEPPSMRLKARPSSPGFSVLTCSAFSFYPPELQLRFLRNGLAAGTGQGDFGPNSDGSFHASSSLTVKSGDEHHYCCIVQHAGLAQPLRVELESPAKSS
T3 sequence (P61769 21-119 limits assumed, chain 2 of 2): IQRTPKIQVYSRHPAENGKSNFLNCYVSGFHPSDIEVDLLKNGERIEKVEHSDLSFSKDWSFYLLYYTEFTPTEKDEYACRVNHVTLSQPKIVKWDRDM
Procedure: as §2
(§3) Signal was developed using TMB substrate then quenched prior to reading absorbance at 450-650 nm on a SpectraMax plate reader.

[6] = target: T2, human FLT3 on the AML5 cell line; assay: cell-based or functional assay; remark: listed apart in the source
recombinant human FcRn [7] = target: T3, recombinant human FcRn; assay: ELISA; recombinant human FcRn coated, serially diluted test article, anti-human (H+L)-HRP, 4PL fit; estimate, no saturating signal
Procedure: as §2, §3

[8] = target: T4, recombinant human C1q protein (Fitzgerald) (human, UniProt P02745 23-245; P02746 28-253; P02747 29-245, limits assumed); assay: ELISA, test article immobilized, C1q added; text: devoid of C1q binding ability
T4 construct: also called human recombinant complement protein, C1q
T4 sequence (P02745 23-245 limits assumed, chain 1 of 3): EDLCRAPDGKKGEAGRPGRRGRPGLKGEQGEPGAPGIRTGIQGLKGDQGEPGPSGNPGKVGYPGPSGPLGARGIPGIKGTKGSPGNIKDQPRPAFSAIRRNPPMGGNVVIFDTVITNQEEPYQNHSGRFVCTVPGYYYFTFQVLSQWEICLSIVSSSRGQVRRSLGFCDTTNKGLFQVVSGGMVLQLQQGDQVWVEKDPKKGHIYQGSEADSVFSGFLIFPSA
T4 sequence (P02746 28-253 limits assumed, chain 2 of 3): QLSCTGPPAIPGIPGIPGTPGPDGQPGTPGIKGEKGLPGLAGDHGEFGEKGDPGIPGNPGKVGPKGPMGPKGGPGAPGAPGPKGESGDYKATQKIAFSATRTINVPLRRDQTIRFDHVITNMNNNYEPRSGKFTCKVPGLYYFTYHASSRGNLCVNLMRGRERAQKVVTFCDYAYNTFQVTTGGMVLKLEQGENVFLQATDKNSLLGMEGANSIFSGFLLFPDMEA
T4 sequence (P02747 29-245 limits assumed, chain 3 of 3): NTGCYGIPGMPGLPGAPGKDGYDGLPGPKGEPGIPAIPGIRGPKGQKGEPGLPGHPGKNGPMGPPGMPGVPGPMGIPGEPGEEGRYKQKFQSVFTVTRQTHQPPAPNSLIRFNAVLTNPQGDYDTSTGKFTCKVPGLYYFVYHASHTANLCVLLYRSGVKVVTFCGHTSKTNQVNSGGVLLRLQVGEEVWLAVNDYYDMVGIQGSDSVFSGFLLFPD

[9] = target: T2, human FLT3 on the AML5 cell line; assay: cell-based or functional assay; remark: listed apart in the source
[10] = target: T2, human FLT3 on the AML5 cell line; assay: cell-based or functional assay; remark: listed apart in the source
[11] = target: T2, human FLT3 on the AML5 cell line; assay: cell-based or functional assay; remark: listed apart in the source

| Binder | EC50 [1] [nM] | EC50 (nM), AML5 proliferation [3] [nM] | EC50 (nM), AML5 proliferation [4] [nM] | EC50 (recombinant human FcRn [7]) [nM] | binding result [8] | EC50 (nM), AML5 proliferation [9] [nM] | potency in AML5 proliferation, fold against SEQ ID NO:1 [11] [fold] | other results |
| --- | --- | --- | --- | --- | --- | --- | --- | --- |
| B1 | 0.12 | 0.078 | 0.08 | ~151 | no binding (tested: 94 nM (highest of the titration)) | 0.034 |  | EC50 [2]: 0.81 nM; EC50 (recombinant human FcRn [5]): 2330 nM; EC50 (nM), AML5 proliferation [6]: 0.05 nM; EC50 (nM), AML5 proliferation [10]: 0.04 nM |
| B2 | 0.11 |  | 0.078 | ~133 | no binding (tested: 94 nM (highest of the titration)) |  |  |  |
| B3 |  |  |  |  |  | 0.014 | ~2.5 |  |
| B4 |  |  |  |  |  | 0.013 | ~2.5 |  |
| B5 |  |  |  |  |  | 0.013 | ~2.5 |  |
| B6 |  | 0.171 |  |  |  |  |  |  |
| B7 |  | 0.115 |  |  |  |  |  |  |
| B8 | 0.13 |  | 0.083 | ~300 | no binding (tested: 94 nM (highest of the titration)) |  |  |  |
| B9 | 0.12 |  | 0.071 | ~158 | no binding (tested: 94 nM (highest of the titration)) |  |  |  |
| B10 |  |  |  |  |  |  |  | EC50 (nM), AML5 proliferation [10]: 0.035 nM |
